These results are taken from PMC5433843, “Protein Phosphatase 1 inactivates Mps1 to ensure efficient Spindle Assembly Checkpoint silencing” (eLife, 2017).

For this assay, the target named is T1, MBP-PP1-87B (Drosophila, UniProt P12982 1-302).
T1 construct: Drosophila PP1-87B (orthologue of PP1-gamma); also called MBP-87B; Protein Phosphatase 1; source: E. coli BL21-star, purified with amylose magnetic beads
The assay can be described thus: pull-down; purified 6xHis-N-Mps1 fragments incubated with MBP or MBP-PP1-87B bound to amylose magnetic beads; column buffer 250 mM NaCl, 20 mM Tris-HCl pH 7.4, 1 mM EDTA, 1 mM DTT; 60 min, room temperature; western blot. The note with it: both partners purified.

T1 sequence (P12982 whole entry): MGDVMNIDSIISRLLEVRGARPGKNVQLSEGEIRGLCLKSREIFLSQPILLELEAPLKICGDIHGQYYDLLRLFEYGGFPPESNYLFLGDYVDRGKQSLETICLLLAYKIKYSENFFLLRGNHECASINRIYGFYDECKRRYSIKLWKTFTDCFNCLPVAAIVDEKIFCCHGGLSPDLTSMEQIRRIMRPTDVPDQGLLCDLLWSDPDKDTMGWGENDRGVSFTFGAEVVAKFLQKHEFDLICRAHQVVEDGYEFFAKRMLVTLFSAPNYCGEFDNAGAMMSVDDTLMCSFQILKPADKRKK

B1: 6xHis-N-Mps1^WT (domain or fragment, Drosophila, UniProt Q9VEH1 104-330, looked up)
chain: PSQELTNSNSNITTRRTPSAAPLKQSDSNLSFLGRFNDMGINCSSQGSPVANSEKQVAKKTAPTLQAAPSATERRPLQETETPLRNELPSTSKTKPDADFITPQVRTIGSTLAGKSRSAVSNDFRAQKVLFQTPMTVSRAAPVASDSISFSLCDTITESPDIPEPPKKAEPPKSQHPSKKSLDHVFRESDKDNVPDKVDNVEPKELVSIPAVAVPPEQPSHKTSNIL
notes: Drosophila Mps1, N-terminus 104-330 amino acids, cloned into KpnI/XhoI sites of pET30a(+); pET30a(+) may add further vector-coded residues (S-tag) besides the His tag; also called Mps1 N-terminus region (104-330 amino acids); source: E. coli BL21-star, purified with Novex Dynabeads, eluted with imidazole
As to B1, the binding result is reported as “binds”.
